Target: DPP9, short isoform (His-TEV-DPP9), co-expressed with NLRP1ΔΔ for cryo-EM (human, UniProt Q86TI2-1 1-863)
Experiment: cryo-EM structure

Sequence of DPP9, short isoform (His-TEV-DPP9), co-expressed with NLRP1ΔΔ for cryo-EM (Q86TI2 whole entry, stated change not applied, canonical isoform): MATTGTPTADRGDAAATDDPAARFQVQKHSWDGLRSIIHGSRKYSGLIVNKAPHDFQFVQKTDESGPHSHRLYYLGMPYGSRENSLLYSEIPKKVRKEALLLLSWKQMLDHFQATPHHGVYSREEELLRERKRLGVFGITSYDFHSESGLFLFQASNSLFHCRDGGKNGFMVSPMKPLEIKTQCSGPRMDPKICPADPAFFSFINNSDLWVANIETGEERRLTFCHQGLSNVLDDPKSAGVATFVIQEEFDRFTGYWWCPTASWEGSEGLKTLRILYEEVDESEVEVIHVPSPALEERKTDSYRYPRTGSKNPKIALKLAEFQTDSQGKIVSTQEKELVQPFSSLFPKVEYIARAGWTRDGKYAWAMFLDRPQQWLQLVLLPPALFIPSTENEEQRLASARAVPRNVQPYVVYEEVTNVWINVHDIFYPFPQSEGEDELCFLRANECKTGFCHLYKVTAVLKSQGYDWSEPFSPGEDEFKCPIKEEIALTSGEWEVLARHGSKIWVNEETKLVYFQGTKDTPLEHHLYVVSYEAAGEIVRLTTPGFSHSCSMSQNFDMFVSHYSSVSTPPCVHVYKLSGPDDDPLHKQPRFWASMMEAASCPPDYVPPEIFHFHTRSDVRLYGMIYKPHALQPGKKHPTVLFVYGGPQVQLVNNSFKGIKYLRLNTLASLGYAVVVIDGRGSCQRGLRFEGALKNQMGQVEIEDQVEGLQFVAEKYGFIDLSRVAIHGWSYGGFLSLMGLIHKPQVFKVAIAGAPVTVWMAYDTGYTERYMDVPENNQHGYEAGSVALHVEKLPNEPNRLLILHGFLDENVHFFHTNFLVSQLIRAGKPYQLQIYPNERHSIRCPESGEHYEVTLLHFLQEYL

binding result: binds
B1: NLRP1-CT freed from NLRP1ΔΔ (UPA subdomain only), molecule B of the NLRP1^A-NLRP1^B-DPP9 ternary complex (domain or fragment, human, UniProt Q9C000-1 1213-1364, looked up)
chain: SPLGVLLKMIHNALRFIPVTSVVLLYHRVHPEEVTFHLYLIPSDCSIRKAIDDLEMKFQFVRIHKPPPLTPLYMGCRYTVSGSGSGMLEILPKELELCYRSPGEDQLFSEFYVGHLGSGIRLQVKDKKDETLVWEALVKPGDLMPATTLIPP

— paper doi:10.1101/2020.08.14.246132 (bioRxiv, 2020)
